Laboratory results as given in US20210054042A1 (UNIVERZA V LJUBLJANI, published 2021).
No end group written: not given here.

What was measured:
Assay in all cases: phage ELISA
[1] = target: T1, BSA (UniProt P02769 25-607)
T1 construct: Negative control target; also called bovine serum albumin
Protocol: (§1) Wells of a 96-well microplate (Nunc, Maxisorp) were either coated with human Fc fragment solution or streptavidin as negative control. The wells were blocked with BSA and contacted with amplified population of each individual clone. Bound phages were detected by the addition of horseradish peroxidase (HRP)-conjugated anti-M13 monoclonal antibodies using the chromogenic substrate (3,3′,5,5′-tetramethylbenzidine (TMB)) solution, and absorbance at 450 nm was measured.
(§2) The binding activity of phage clone displaying the minimized peptide SEQ ID NO: 2, was further evaluated by phage ELISA (as described above) using different subclasses of native human IgGs and different therapeutic monoclonal antibodies. BSA, avidin and SA were used as targets in negative control wells.

[2] = target: T2, streptavidin (UniProt P22629 37-163, limits assumed)
T2 construct: Negative control target; also called SA
Protocol: as §1, §2

[3] = target: T3, avidin (UniProt P02701 25-152)
T3 construct: Negative control target
Protocol: as §1, §2

Measured: binding result

T2 sequence (P22629 37-163 limits assumed): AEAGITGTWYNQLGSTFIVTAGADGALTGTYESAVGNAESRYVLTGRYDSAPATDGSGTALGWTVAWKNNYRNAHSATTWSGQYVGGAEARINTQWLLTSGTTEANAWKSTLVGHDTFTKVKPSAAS
T3 sequence (P02701 25-152 limits assumed): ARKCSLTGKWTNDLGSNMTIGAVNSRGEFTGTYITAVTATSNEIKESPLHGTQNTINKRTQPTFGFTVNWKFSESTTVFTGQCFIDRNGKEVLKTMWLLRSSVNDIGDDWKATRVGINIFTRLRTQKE
T1 sequence (P02769 25-607 limits assumed): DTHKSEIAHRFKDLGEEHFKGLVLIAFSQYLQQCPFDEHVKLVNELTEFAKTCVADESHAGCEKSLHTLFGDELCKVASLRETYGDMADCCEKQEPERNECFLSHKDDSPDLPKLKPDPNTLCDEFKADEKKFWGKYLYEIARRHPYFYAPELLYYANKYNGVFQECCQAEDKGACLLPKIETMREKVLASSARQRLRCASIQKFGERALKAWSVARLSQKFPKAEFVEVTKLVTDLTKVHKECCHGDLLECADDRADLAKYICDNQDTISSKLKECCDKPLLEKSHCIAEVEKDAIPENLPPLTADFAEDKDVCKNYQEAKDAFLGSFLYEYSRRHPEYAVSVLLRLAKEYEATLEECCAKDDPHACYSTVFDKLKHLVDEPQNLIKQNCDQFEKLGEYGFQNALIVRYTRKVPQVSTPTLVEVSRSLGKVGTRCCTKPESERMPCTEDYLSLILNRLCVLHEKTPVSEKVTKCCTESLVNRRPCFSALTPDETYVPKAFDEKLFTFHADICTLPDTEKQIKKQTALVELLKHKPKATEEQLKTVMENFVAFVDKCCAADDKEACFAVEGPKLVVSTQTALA

B1: phage clone displaying the minimized peptide SEQ ID NO: 2 (peptide, not shown: large carriers)
peptide: GSYWYQVWF
modifications: also: displayed on phage as P3 coat protein fusion, fusion limits and linker not given here
no binding: all assays above
